# Laboratory results: US8361765B2, “Enzymic method for the enantioselective reduction of keto compounds” (IEP GmbH, priority 2001, dated 2013)
# What was measured:
# Format in all cases: biochemical, Lactobacillus minor
# [1] = Temperature optimum of the enzymic reaction
# Method: The optimal assay temperature was determined by measuring the enzyme activity from 25° C. to 60° C. The assay mixture corresponded to the standard concentration of ethyl 4-chloro-3-oxo-butanoate and NADPH.
# [2] = system: L. minor alcohol dehydrogenase; test: Enzyme stability under process conditions; conditions: for several days
# Method: The stability of the enzyme under process conditions was studied by diluting L. minor alcohol dehydrogenase 1:100 with the solvent mixtures used in the two-phase system, followed by incubation at room temperature. 10 μl of the enzyme solution were then used in the standard assay mixture. Table 8 depicts the enzyme activities as a % of the starting value.
# [3] = Temperature stability of L. minor alcohol dehydrogenase; conditions: for temperature up to which the enzyme is stable: 30 min incubation; for Activity in % (n = 4): measured at 30° C.
# Method: The temperature stability for the range from 25° C. to 50° C. was determined similarly to the manner described in A.). For this purpose, in each case a 1:100 dilution of the purified enzyme was incubated at the particular temperature for 30 min and then measured at 30° C. using the above assay procedure. Here too, the starting value used was the measured value obtained immediately after diluting the enzyme in triethanolamine buffer 50 mM pH=7.0. This value was also set here as 100% value. L. minor alcohol dehydrogenase is stable up to a temperature of 40° C. Thereafter, the activity rapidly declines.
# [4] = pH stability of cloned L. minor alcohol dehydrogenase
# Method: The activity of the enzyme as a function of storage in buffers with different pH values in the range from pH 4 to 11 was studied. For this purpose, various buffers (50 mM) in the range from pH 4 to 11 were prepared and the enzyme purified in Example 2 was diluted 1:100 therein and incubated for 30 min. All buffers contained 1 mM MgCl2. 10 μl of this were then used in the normal enzyme assay (triethanolamine buffer 100 mM pH=7.0, 1 mM MgCl2, 10 mM ethyl 4-chloro-3-oxo-butanoate and 0.19 mM NADPH). The reaction was monitored at 30° C. and 340 nm for 1 min.
# The starting value here is the measured value obtained immediately after diluting the enzyme in triethanolamine buffer 50 mM pH=7.0. Under predefined conditions, this value corresponded to a change in extinction of 0.20/min and was set as 100% value, with all subsequent measured values being related to this value.
# [5] = pH optimum of the enzymic reaction; conditions: 30° C.
# Method: As in the standard assay, the concentration of ethyl 4-chloro-3-oxo-butanoate and of NADPH was 10 mM and 0.19 mM, respectively. The reaction was determined at 30° C.
# [6] = Enzyme obtainment and purification: activity of crude extract and purified enzyme; conditions: for volume activity: 25° C.
# Method: The enzyme was obtained by culturing the strain with the highest enzymic activity in a fermenter (fed batch, 10 l) and inducing it at 40 OD500 with 1 mM IPTG. After 18 h, the cells were harvested, taking up 300 g of cells in 3 l of Kpi buffer (50 mM, pH=7, 1 mM MgCl2) and disrupted subsequently by means of a French press (Gaullin, Siemens).
# To characterize the enzyme, a portion of the enzyme obtained was purified by means of […] chromatography on Q-Sepharose ff (fast flow). For this purpose, the column used was equilibrated with 50 mM Kpi buffer pH=7.0, 1 mM MgCl2. After application of the crude extract to the column and brief washing with equilibration buffer, the enzyme was eluted with an increasing linear salt gradient (0-1M NaCl, 1 ml/min) at a salt concentration of about 0.3 M NaCl. […] The enzyme purified in this way thus has a specific activity of approximately 35 to 40 U/mg of protein.
# All enzymic activities were determined at 25° C. The enzyme activity was calculated as follows: • Calculation: 1 unit=conversion of 1 μmol of substrate per min • Lambert-Beer law • NADPH decrease was monitored at 340 nm (see enzymic assay mixture)=ΔE/min • N=enzyme dilution factor • V=enzyme volume in ml (0.01) • Vcuvette=cuvette volume=1 ml • d=cuvette light path=1 cm • eNADPH NADPH extinction coefficient=6.22 [mM^−1*cm^−1] • Activity=(ΔE/min*N*Vcuvette)/(eNADPH*V*d)
# Protein determination was carried out according to Bradford (Bio-Rad Laboratories GmbH, Protein Assay).
# [7] = crude extract after fermentation and French press
molecule,measurement,setting,value
"L. minor alcohol dehydrogenase: R-specific alcohol dehydrogenase from Lactobacillus minor, SEQ ID NO: 4, overexpressed in Escherichia coli RB 791 (protein, listed as Lactobacillus sp.) MRGSHHHHHHGSMTDRLKGKVAIVTGGTLGIGLAIADKFVEEGAKVVITGRHADVGEKAARSIGGTDVIRFVQHDASDETGWTKLFDTTEEAFGPVTTVVNNAGIAVSKSVEDTTTEEWRKLLSVNLDGVFFGTRLGIQRMKNKGLGASIINMSSIEGEVGDPALGAYNASKGAVRIMSKSAALDCALKDYDVRVNTVHPGYIKTPLVDDLEGAEEMMSQRTKTPMGHIGEPNDIAWICVYLASDESKFATGAEFVVDGGYTAQ",Activity in U/ml of undiluted enzyme,[1]; assay temperature 25° C.,540 U/ml
same,Activity in U/ml of undiluted enzyme,[1]; assay temperature 30° C.,1235 U/ml
same,Activity in U/ml of undiluted enzyme,[1]; assay temperature 35° C.,1968 U/ml
same,Activity in U/ml of undiluted enzyme,[1]; assay temperature 40° C.,1621 U/ml
same,Activity in U/ml of undiluted enzyme,[1]; assay temperature 45° C.,2469 U/ml
same,Activity in U/ml of undiluted enzyme,[1]; assay temperature 50° C.,2469 U/ml
same,Activity in U/ml of undiluted enzyme,[1]; assay temperature 55° C.,2855 U/ml
same,Activity in U/ml of undiluted enzyme,[1]; assay temperature 60° C.,0 U/ml
same,stability in the combination of solvents used in the two-phase system (in words),[2],stable and active
same,temperature up to which the enzyme is stable,[3],≤ 40 °C
same,temperature up to which the enzyme is stable,[3]; listed as Lactobacillus minor alcohol dehydrogenase,about 40 °C
same,Activity in % (n = 4),[3]; after 30 min at 25° C.,101 ± 3.2%
same,Activity in % (n = 4),[3]; after 30 min at 30° C.,81.2 ± 5.8%
same,Activity in % (n = 4),[3]; after 30 min at 35° C.,67.0 ± 1.6%
same,Activity in % (n = 4),[3]; after 30 min at 37° C.,20.2 ± 2.4%
same,Activity in % (n = 4),[3]; after 30 min at 40° C.,33.4 ± 3.8%
same,Activity in % (n = 4),[3]; after 30 min at 42° C.,0 ± 0%
same,Activity in % (n = 4),[3]; after 30 min at 45° C.,0 ± 0%
same,Activity in % (n = 4),[3]; after 30 min at 50° C.,0 ± 0%
same,Activity in % (n = 2),"[4]; after 30 min at pH 4, sodium acetate/acetic acid 50 mM, 100% = value directly after dilution",87.5 ± 6.5%
same,Activity in % (n = 2),"[4]; after 30 min at pH 4.5, sodium acetate/acetic acid 50 mM",94.5 ± 3.0%
same,Activity in % (n = 2),"[4]; after 30 min at pH 5, MES/NaOH 50 mM",55 ± 5%
same,Activity in % (n = 2),"[4]; after 30 min at pH 5, sodium acetate/acetic acid 50 mM",94.5 ± 1.5%
same,Activity in % (n = 2),"[4]; after 30 min at pH 5.5, KH2PO4/K2PO4 50 mM",96 ± 3%
same,Activity in % (n = 2),"[4]; after 30 min at pH 5.5, MES/NaOH 50 mM",77.1 ± 2.1%
same,Activity in % (n = 2),"[4]; after 30 min at pH 6, KH2PO4/K2PO4 50 mM",100 ± 0%
same,Activity in % (n = 2),"[4]; after 30 min at pH 6, triethanolamine/NaOH 50 mM",100 ± 0%
same,Activity in % (n = 2),"[4]; after 30 min at pH 6.5, KH2PO4/K2PO4 50 mM",97.5 ± 2.5%
same,Activity in % (n = 2),"[4]; after 30 min at pH 6.5, triethanolamine/NaOH 50 mM",100 ± 0%
same,Activity in % (n = 2),"[4]; after 30 min at pH 7, KH2PO4/K2PO4 50 mM",100 ± 0%
same,Activity in % (n = 2),"[4]; after 30 min at pH 7, triethanolamine/NaOH 50 mM",97.9 ± 2.1%
same,Activity in % (n = 2),"[4]; after 30 min at pH 7.5, KH2PO4/K2PO4 50 mM",97.5 ± 7.5%
same,Activity in % (n = 2),"[4]; after 30 min at pH 7.5, tris/HCl 50 mM",94.6 ± 1.3%
same,Activity in % (n = 2),"[4]; after 30 min at pH 8, KH2PO4/K2PO4 50 mM",93.0 ± 3.0%
same,Activity in % (n = 2),"[4]; after 30 min at pH 8, tris/HCl 50 mM",89.2 ± 0%
same,Activity in % (n = 2),"[4]; after 30 min at pH 8.5, KH2PO4/K2PO4 50 mM",102.5 ± 2.5%
same,Activity in % (n = 2),"[4]; after 30 min at pH 8.5, tris/HCl 50 mM",60 ± 4.2%
same,Activity in % (n = 2),"[4]; after 30 min at pH 9, glycine/NaOH 50 mM",76.5 ± 1.5%
same,Activity in % (n = 2),"[4]; after 30 min at pH 9, tris/HCl 50 mM",63.1 ± 4.8%
same,Activity in % (n = 2),"[4]; after 30 min at pH 9.5, glycine/NaOH 50 mM",52.5 ± 7.5%
same,Activity in % (n = 2),"[4]; after 30 min at pH 10, glycine/NaOH 50 mM",52.5 ± 7.5%
same,Activity in % (n = 2),"[4]; after 30 min at pH 11, glycine/NaOH 50 mM",0.0 ± 0%
same,Activity in U/ml of undiluted enzyme,"[5]; assay at pH 4, sodium acetate/acetic acid",85 U/ml
same,Activity in U/ml of undiluted enzyme,"[5]; assay at pH 4.5, sodium acetate/acetic acid",132 U/ml
same,Activity in U/ml of undiluted enzyme,"[5]; assay at pH 5, MES/NaOH",218 U/ml
same,Activity in U/ml of undiluted enzyme,"[5]; assay at pH 5.5, MES/NaOH",240 U/ml
same,Activity in U/ml of undiluted enzyme,"[5]; assay at pH 6, triethanolamine/NaOH",381 U/ml
same,Activity in U/ml of undiluted enzyme,"[5]; assay at pH 6.5, triethanolamine/NaOH",349 U/ml
same,Activity in U/ml of undiluted enzyme,"[5]; assay at pH 7, triethanolamine/NaOH",510 U/ml
same,Activity in U/ml of undiluted enzyme,"[5]; assay at pH 7.5, tris/HCl",707 U/ml
same,Activity in U/ml of undiluted enzyme,"[5]; assay at pH 8, tris/HCl",585 U/ml
same,Activity in U/ml of undiluted enzyme,"[5]; assay at pH 8.5, tris/HCl",486 U/ml
same,Activity in U/ml of undiluted enzyme,"[5]; assay at pH 9, tris/HCl",488 U/ml
same,Activity in U/ml of undiluted enzyme,"[5]; assay at pH 10, glycine/NaOH",131 U/ml
same,Activity in U/ml of undiluted enzyme,"[5]; assay at pH 11, glycine/NaOH",0 U/ml
same,activity per wet mass,[6]; [7],20 000 U/g of wet mass
same,volume activity,[6]; [7],approximately 2000 U/ml
same,activity per wet mass on overexpression in Escherichia coli,[6]; overexpressed in Escherichia coli RB 791,20 000 units/g of wet mass
same,volume activity,"[6]; purified enzyme, Q-Sepharose ff",about 800 U/ml
